What was measured:
C3b (human) = C3b (human) (UniProt P01024); experiment: SPR
[1] = molecular target: recombinant albicin (Anopheles albimanus complement inhibitor) (Anopheles albimanus); experiment: SPR
Sequence of recombinant albicin (Anopheles albimanus complement inhibitor) (Anopheles albimanus) (A0A1Y9G8D0 27-142, tags left off): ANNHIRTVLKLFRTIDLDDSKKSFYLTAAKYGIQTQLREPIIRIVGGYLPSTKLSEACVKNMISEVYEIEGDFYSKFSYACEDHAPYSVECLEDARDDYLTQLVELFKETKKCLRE

Sequence of properdin (P27918 28-469): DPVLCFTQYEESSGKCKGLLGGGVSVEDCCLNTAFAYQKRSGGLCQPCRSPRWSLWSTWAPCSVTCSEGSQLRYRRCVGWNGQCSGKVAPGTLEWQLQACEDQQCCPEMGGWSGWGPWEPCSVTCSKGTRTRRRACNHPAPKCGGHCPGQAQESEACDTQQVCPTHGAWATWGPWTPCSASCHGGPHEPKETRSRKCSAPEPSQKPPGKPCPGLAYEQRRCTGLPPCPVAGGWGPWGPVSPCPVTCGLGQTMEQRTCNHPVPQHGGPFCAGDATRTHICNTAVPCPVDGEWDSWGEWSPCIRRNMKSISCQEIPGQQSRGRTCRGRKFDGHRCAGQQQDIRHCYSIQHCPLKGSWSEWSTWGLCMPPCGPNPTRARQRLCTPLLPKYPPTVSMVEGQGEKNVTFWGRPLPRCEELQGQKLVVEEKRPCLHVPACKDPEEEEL

For “properdin (from UniProt P27918 28-469) (natural protein)”, the response of properdin coated on the C3b surface (C3b (human)) was 1200 RU and the K1/2 (concentration at half-saturation) [1] was 11.6 nM.

From article PMC4989506
